In publication PMC7108666:

T1: Put3 (UniProt P25502 1-979)
T1 sequence: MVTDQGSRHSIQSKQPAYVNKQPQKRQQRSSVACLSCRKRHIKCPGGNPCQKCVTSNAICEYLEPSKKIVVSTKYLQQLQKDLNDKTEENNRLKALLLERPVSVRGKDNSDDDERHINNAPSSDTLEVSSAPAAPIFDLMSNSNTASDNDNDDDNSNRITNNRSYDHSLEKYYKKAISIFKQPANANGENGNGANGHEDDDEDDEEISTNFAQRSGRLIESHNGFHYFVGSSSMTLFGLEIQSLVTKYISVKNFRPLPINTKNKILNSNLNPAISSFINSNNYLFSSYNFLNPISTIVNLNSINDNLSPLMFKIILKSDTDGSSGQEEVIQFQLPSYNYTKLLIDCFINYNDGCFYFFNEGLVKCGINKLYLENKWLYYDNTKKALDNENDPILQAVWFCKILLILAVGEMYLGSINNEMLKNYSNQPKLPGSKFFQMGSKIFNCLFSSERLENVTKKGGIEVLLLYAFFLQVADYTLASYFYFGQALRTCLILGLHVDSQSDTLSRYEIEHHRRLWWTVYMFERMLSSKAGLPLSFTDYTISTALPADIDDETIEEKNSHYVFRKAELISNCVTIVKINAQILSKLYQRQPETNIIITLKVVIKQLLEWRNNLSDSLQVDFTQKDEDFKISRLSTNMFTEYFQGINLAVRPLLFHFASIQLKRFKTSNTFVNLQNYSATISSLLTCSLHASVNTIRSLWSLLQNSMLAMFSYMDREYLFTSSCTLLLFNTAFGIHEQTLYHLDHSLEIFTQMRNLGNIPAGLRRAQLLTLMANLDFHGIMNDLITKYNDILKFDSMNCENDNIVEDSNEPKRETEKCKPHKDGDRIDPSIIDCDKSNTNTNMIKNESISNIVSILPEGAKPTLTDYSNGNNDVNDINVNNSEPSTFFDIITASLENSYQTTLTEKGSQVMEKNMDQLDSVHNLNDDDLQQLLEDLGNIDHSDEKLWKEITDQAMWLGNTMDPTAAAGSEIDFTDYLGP


How the values were obtained:
Put3 = biological target: T1, Put3; experiment: EMSA
Put3;Myo3 = Put3;Myo3 (Saccharomyces cerevisiae?;Saccharomyces …, UniProt P25502;P36006 1-979;1-1272, |); experiment: EMSA

| Binder | binding result (Put3) | binding result (Put3;Myo3) |
| --- | --- | --- |
| UAS oligonucleotide (dsDNA) DNA 1: TCTCGGGAAGCCAACTCCGAAGC DNA 2: GCTTCGGAGTTGGCTTCCCGAGA | binds | – |
| GRSI oligonucleotide (dsDNA) DNA 1: GTGTTCCGGGGTTGGATGCGGAA DNA 2: TTCCGCATCCAACCCCGGAACAC | binds | binds |
